Consider one variant from paper PMC6105031, “The crystal structure of KSHV ORF57 reveals dimeric active sites important for protein stability and function” (PLoS Pathogens, 2018).

Sequences and labels used below:
B1: FLAG-tagged full-length ORF57 [Kaposi's sarcoma-associated herpesvirus (KSHV, HHV8)] / itself (parent complex)
chain: MVQAMIDMDIMKGILEDSVSSSEFDESRDDETDAPTLEDEQLSEPAEPPADERIRGTQSAQGIPPPLGRIPKKSQGRSQLRSEIQFCSPLSRPRSPSPVNRYGKKIKFGTAGQNTRPPPEKRPRRRPRDRLQYGRTTRGGQCRAAPKRATRRPQVNCQRQDDDVRQGVSDAVKKLRLPASMIIDGESPRFDDSIIPRHHGACFNVFIPAPPSHVPEVFTDRDITALIRAGGKDDELINKKISAKKIDHLHRQMLSFVTSRHNQAYWVSCRRETAAAGGLQTLGAFVEEQMTWAQTVVRHGGWFDEKDIDIILDTAIFVCNAFVTRFRLLHLSCVFDKQSELALIKQVAYLVAMGNRLVEACNLLGEVKLNFRGGLLLAFVLTIPGMQSRRSISARGQELFRTLLEYYRPGDVMGLLNVIVMEHHSLCRNSECAAATRAAMGSAKFNKGLFFYPLS

The variants in this assay derive from B1. Briefly: in vitro crosslinking assay (DSS) with anti-FLAG Western blot; HEK293 cells, 0.5 μg plasmid for WT and 2 μg for mutant, DSS 50 μM for 30 min; lanes 14 (WT) and 16 (mutant); parent: 0.15. (Immunoblotting shows a protein as a band on a membrane.)
For the variant chain 1 R270A, chain 1 R271A, the screen value came out at 0.07.
